Results on 72 sequences are retold here after the supplement of paper PMC10567573.

± gives the standard deviation.

The data set can be described thus: protein stability index of a GFP-peptide fusion (GPS, HEK-293T) (PSI 1-6); higher = more stable.
Where [1] appears, read: treatment: DMSO, c terminus: a fixed tail appended.
Where [2] appears, read: treatment: MLN4924 1 uM, 8 h, c terminus: a fixed tail appended.
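Further: 24-mer peptide tiles fused after GFP, lentivirally expressed, FACS-sorted into six equal bins by GFP/DsRed ratio, decoded by Illumina sequencing, PSI is the read-weighted mean bin number.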

On to WKYALDMQQSNLDPLSPMTASSLL [FEM1C], for which the protein stability index runs as follows: under setting [1], 2.68 ± 0.19; under setting [2], 2.84 ± 0.42.

For LNIYKTLKTHLIEKGILQPTLKV [CDS1], the protein stability index (treatment: DMSO, c terminus: native) turned out to be 2.71 ± 0.94 and the protein stability index (treatment: MLN4924 1 uM, 8 h, c terminus: native) stood at 2.86 ± 0.8.

On to HSLTPVSSDHLFLFGGFTTDKQPL [KLHDC2], for which the protein stability index by setting is: under setting [1], 2.95 ± 0.46; under setting [2], 3.21 ± 0.27.

Take LNCPFCGARLGGFNFVSTPKCSCG [RNF180]: the protein stability index is 2.25 ± 0.51 under setting [1] and 3.28 ± 0.38 under setting [2].

Consider ENDSTPTVSTSEVTSQQEPQIPVD [TAF7L], for which the protein stability index is, setting by setting: under setting [1], 5.53 ± 0.2; under setting [2], 5.59 ± 0.26.

For EEINKNISDFGRQQLLPPFPSLHQ [EHMT1], the protein stability index came out at 3.08 ± 0.27 under setting [1] and 3.64 ± 0.4 under setting [2].

For QIKTLLALSCHEQEMVVSSLVIGA [SLC2A12], the protein stability index came out at 3.78 ± 0.47 under setting [1] and 3.1 ± 0.55 under setting [2].

As for EYDYLFKVVLIGDSGVGKSNLLSR [RAB11A], the protein stability index is 2.6 ± 0.65 under setting [1] and 2.39 ± 0.7 under setting [2].

Regarding TGTSKRYQLCRVQECPPDGRSFRE [ADAMTSL2], the protein stability index stood at 2.58 ± 0.71 under setting [1] and 3.09 ± 0.62 under setting [2].

As to HWKTWLAIKCSPSLHVDDRERMEL [RIPK4], the protein stability index is, setting by setting: under setting [1], 2.38 ± 0.26; under setting [2], 2.53 ± 0.58.

As to QSLRCDLIRYICGVVHPSNEVLSS [INTS3], the protein stability index amounted to 2.33 ± 0.34 under setting [1] and 2.19 ± 0.45 under setting [2].

In turn, AEDLRMLDASGEKMNGSHRDQGSS [IKZF1] came in with a protein stability index under setting [1] of 5.18 ± 0.43 and a protein stability index under setting [2] of 5.34 ± 0.23.

IVGSQGAEGALEEVPLEVLRQRES [TBC1D10A]: the protein stability index came out at 5.17 ± 0.34 under setting [1] and 5.31 ± 0.26 under setting [2].

Turning to GERPEEGVAGGLNRNQGLNRLMLA [TCF25], the protein stability index by setting is: under setting [1], 3.88 ± 0.44; under setting [2], 4.02 ± 0.47.

As to TRRLRLAHVGMELQLKQELAMLNA [SCARA5], the protein stability index came to 2.65 ± 0.23 under setting [1] and 2.55 ± 0.22 under setting [2].

SHYFKIIEDLRAQIFANTVDNARI [KRT18] returned a protein stability index under setting [1] of 2.4 ± 0.44 and a protein stability index under setting [2] of 2.07 ± 0.24.

Consider IEKCTTPLSDDHDEKYGVPSLEEL [CRY1], for which the protein stability index under setting [1] was found to be 5.11 ± 0.25 and the protein stability index under setting [2] was found to be 5.14 ± 0.18.

For LLAAREDLSKIIRTSSGTSREKTA [FAM98B], the protein stability index reads like this: under setting [1], 4.05 ± 0.15; under setting [2], 4.23 ± 0.24.

As to LVKHWYQNCKKKLGKLPPQYALEL [OAS1], the protein stability index by setting is: under setting [1], 2.43 ± 0.83; under setting [2], 2.51 ± 0.63.

On to LEPPEEEIIEGNTKSHIMLVQRQM [NECAB1], for which the protein stability index reads like this: under setting [1], 4.64 ± 0.16; under setting [2], 4.8 ± 0.24.

As to TIVTDVFQGSMRIFTKKLPHPDLP [USP39], the protein stability index stood at 2.31 ± 0.099 under setting [1] and 2.38 ± 0.29 under setting [2].

Regarding FRNIKQEPFSARVLVLCVFNSILP [SOAT1], the protein stability index amounted to 2.9 ± 0.35 under setting [1] and 2.87 ± 0.59 under setting [2].

As for PREQAARFCSEIKSSKYGEGHQAW [SEPHS2], the protein stability index runs as follows: under setting [1], 3.36 ± 0.12; under setting [2], 3.52 ± 0.19.

Take KQGSMNFRFIPVLFPNAKKEHVPT [TRAF3IP2]: the protein stability index runs as follows: under setting [1], 2.41 ± 0.41; under setting [2], 2.48 ± 0.49.

Consider AYTHGCILHPELTVDSMIPAYATT [GDAP1], for which the protein stability index reads like this: under setting [1], 2.65 ± 0.15; under setting [2], 2.76 ± 0.063.

Turning to YETKYVVLSYLGLLSQEKLQEQHL [BCL2L13], the protein stability index under setting [1] stood at 2.63 ± 0.49 and the protein stability index under setting [2] was 2.62 ± 0.46.

EQLAALSQAPVNKPKKKKEKKEKE [BRD3]: the protein stability index was determined as 5.38 ± 0.2 under setting [1] and 5.67 ± 0.2 under setting [2].

On to LKYVRGLLQTEPQNNQAKELERLI [FIS1], for which the protein stability index reads like this: under setting [1], 2.89 ± 0.29; under setting [2], 3.02 ± 0.29.

In the case of FAKKLVDRTWTLCGTPEYLAPEVI [PRKX], the protein stability index under setting [1] came out at 2.63 ± 0.8 and the protein stability index under setting [2] was 2.29 ± 0.19.

Consider KEDASEFQILKYLFQIDVYDFMNS [MIA2], for which the protein stability index by setting is: under setting [1], 2.5 ± 0.65; under setting [2], 2.76 ± 0.24.

For SRDRRRSSDRSRDSSHERTESQLT [BTBD10], the protein stability index came to 5.45 ± 0.32 under setting [1] and 5.5 ± 0.22 under setting [2].

YSGTFALIGAAAFLGGVVRMTISL [CLCN6] returned a protein stability index under setting [1] of 3.78 ± 0.31 and a protein stability index under setting [2] of 2.86 ± 0.15.

DPRYELPSRKYISTKAIPEKYGAV [ZBED1]: the protein stability index by setting is: under setting [1], 3.55 ± 0.18; under setting [2], 3.55 ± 0.19.

As to ICFKEMLANSWNCLPKHLLHSVNQ [KLHDC2], the protein stability index is, setting by setting: under setting [1], 2.73 ± 0.43; under setting [2], 2.63 ± 0.65.

For ERSRGRSISRGRHARTHPQTALLE [MATN2], the protein stability index is 4.31 ± 0.53 under setting [1] and 4.72 ± 0.3 under setting [2].

As for DPTQRILYRDVMLETFGHLLSIGP [ZNF8], the protein stability index is, setting by setting: under setting [1], 2.21 ± 0.23; under setting [2], 2.25 ± 0.22.

Turning to CSCLSDILRFIYSGAFQWEELEED [RHOBTB3], the protein stability index by setting is: under setting [1], 2.35 ± 0.41; under setting [2], 1.88 ± 0.34.

Take TDNQVRLRKRKEIREDRDRARLDS [DLC1]: the protein stability index reads like this: under setting [1], 5.18 ± 0.39; under setting [2], 5.07 ± 0.3.

Regarding GRDGYDYDGYRLRVEFPRSGRGTG [SRSF1], the protein stability index came out at 3.17 ± 0.37 under setting [1] and 3.26 ± 0.36 under setting [2].

As to IPEGLNYSENAPFHLSLFQGWMNL [PLD5], the protein stability index was 2.2 ± 0.55 under setting [1] and 1.91 ± 0.38 under setting [2].

As to AQHSLMDGYCMFNHVAVAARYAQQ [HDAC6], the protein stability index under setting [1] was 2.1 ± 0.25 and the protein stability index under setting [2] came to 1.92 ± 0.39.

On to RSLSERTVDKCFGRKKYDIDPRNG [SPATS1], for which the protein stability index under setting [1] was 4.39 ± 0.24 and the protein stability index under setting [2] worked out at 4.73 ± 0.33.

For the sequence FTVRPDVTQNSTAEPSRFSSSDSD [FCHO1], the protein stability index is, setting by setting: under setting [1], 5.09 ± 0.32; under setting [2], 5.06 ± 0.14.

With QSKILKVIRKNIVKKCLELFSELA [HSP90AB1], the protein stability index came out at 2.47 ± 0.37 under setting [1] and 3.39 ± 0.91 under setting [2].

With STLGTLQPPPAPPKKIMPEAHSHY [PPFIA4], the protein stability index by setting is: under setting [1], 4.02 ± 0.18; under setting [2], 4.24 ± 0.1.

As for GACIVNSENKIVGIGYNGMPNGCS [DCTD], the protein stability index under setting [1] amounted to 3.04 ± 0.33 and the protein stability index under setting [2] was 3.21 ± 0.43.

VDGDQSKILISGLEPSTPYRFLLY [TNXB]: the protein stability index is, setting by setting: under setting [1], 2.41 ± 0.45; under setting [2], 2.21 ± 0.48.

For the sequence NPYYDPLQWKSSHFERRDNMNDNF [CHGB], the protein stability index reads like this: under setting [1], 3.27 ± 0.1; under setting [2], 3.14 ± 0.23.

In the case of MDTAMEVVKFVNFLLVNGFQTAID [TRAF3IP2], the protein stability index turned out to be 2.73 ± 1.1 under setting [1] and 2.79 ± 0.086 under setting [2].

The sequence KSFILDFMLRYLYSQKESGHSNWL [ATL3] had a protein stability index under setting [1] of 2.88 ± 0.33 and a protein stability index under setting [2] of 3.07 ± 0.48.

On to LPPSMERGYPPPRDSYSSSSRGAP [RBMX], for which the protein stability index runs as follows: under setting [1], 4.5 ± 0.17; under setting [2], 4.53 ± 0.2.

Turning to PYYLRSFLVVLKTVLENEDDMLLF [FAN1], the protein stability index runs as follows: under setting [1], 2.27 ± 0.36; under setting [2], 2.26 ± 0.25.

With PFNQSTFNNVVEQNFKNRESYPED [DLC1], the protein stability index is, setting by setting: under setting [1], 4.62 ± 0.14; under setting [2], 4.66 ± 0.16.

In the case of DLSAANEKNLLLQNQVDELERKFR [LRRC45], the protein stability index is, setting by setting: under setting [1], 3.96 ± 0.38; under setting [2], 4.08 ± 0.62.

As for LEFKLKSNDNEERLQVVKLLAKMF [PDS5B], the protein stability index was 2.12 ± 0.38 under setting [1] and 2.29 ± 0.28 under setting [2].

Turning to ENERVRGLETGDWGGAPKEGSIWR [ZSWIM9], the protein stability index is 4.29 ± 0.32 under setting [1] and 4.16 ± 0.28 under setting [2].

For the sequence HNQVEAAWLEGRIRQEFDKLREFL [TRIM35], the protein stability index by setting is: under setting [1], 3.5 ± 0.52; under setting [2], 3.75 ± 0.48.

On to FTQPLLPAFTVWCGSFQVTTGLQV [FSD1], for which the protein stability index is 3 ± 0.12 under setting [1] and 3.03 ± 0.5 under setting [2].

Regarding RSHHLEMVIQLLAIMCVSCICWSP [PTGFR], the protein stability index is, setting by setting: under setting [1], 3.18 ± 0.26; under setting [2], 3.14 ± 0.69.

Turning to QVTCLRTQVLEDSEDSFCRRHPGL [TRAF3IP2], the protein stability index under setting [1] came to 4.05 ± 0.2 and the protein stability index under setting [2] stood at 4.08 ± 0.35.

Regarding LNLNYNCISDELLENLCENASTLR [FBXO39], the protein stability index is, setting by setting: under setting [1], 3.28 ± 0.16; under setting [2], 3.29 ± 0.21.

Take LKLWEIGKIIGGMWRDLTDEEKQE [SMARCE1]: the protein stability index is, setting by setting: under setting [1], 2.67 ± 0.55; under setting [2], 3.44 ± 0.43.

Turning to AARISNKGKFSTDTKGKPTSRTQV [ZC2HC1A], the protein stability index was 3.91 ± 0.38 under setting [1] and 4.19 ± 0.39 under setting [2].

Consider PEERLEKQNEKLNNQEEETEFKEL [CCDC89], for which the protein stability index came to 5.67 ± 0.11 under setting [1] and 5.48 ± 0.29 under setting [2].

Take KPPETSVPVVTPTASTAPPVPATA [SNAP91]: the protein stability index reads like this: under setting [1], 5.34 ± 0.35; under setting [2], 5.37 ± 0.18.

For the sequence GGIIAPFIPSLKYVQWSLPFIVFG [SLC22A15], the protein stability index is, setting by setting: under setting [1], 2.75 ± 0.39; under setting [2], 2.86 ± 0.32.

As for MAVTGWLESLRTAQKTALLQDGRR [DPCD], the protein stability index reads like this: under setting [1], 2.51 ± 0.14; under setting [2], 2.68 ± 0.17.

For the sequence QRHPRLRPQSAQSSFPPSPGPSPD [AUP1], the protein stability index stood at 4.76 ± 0.21 under setting [1] and 4.97 ± 0.18 under setting [2].

As for ESEEEGPWEPPVLPILTWPVLQSR [HDAC6], the protein stability index amounted to 4.5 ± 0.17 under setting [1] and 4.37 ± 0.15 under setting [2].

Regarding TADRIIRVYDGREILTCGRDGEPE [RBBP5], the protein stability index by setting is: under setting [1], 4.55 ± 0.12; under setting [2], 4.49 ± 0.31.

For the sequence LFQSPLFAKAGDTLSGTCLLIANK [CARM1], the protein stability index is, setting by setting: under setting [1], 2.56 ± 0.76; under setting [2], 2.81 ± 0.47.

Consider VDFQCVKSKSITNLAAAAADIPQD [BTBD10], for which the protein stability index was 4.79 ± 0.28 under setting [1] and 4.8 ± 0.11 under setting [2].
